One molecule from PMC12277127 can be followed below.

By Kd is commonly meant the constant that tells how readily two partners part at equilibrium.

Common to all, as to settings: protein: recombinant; tags: none left (N-terminal His removed by TEV); chain copies: 3; single strand
Data set [1] has as its target T1, SPRTN core (E112Q) (human, UniProt Q9H040 26-240, E112Q).
T1 sequence: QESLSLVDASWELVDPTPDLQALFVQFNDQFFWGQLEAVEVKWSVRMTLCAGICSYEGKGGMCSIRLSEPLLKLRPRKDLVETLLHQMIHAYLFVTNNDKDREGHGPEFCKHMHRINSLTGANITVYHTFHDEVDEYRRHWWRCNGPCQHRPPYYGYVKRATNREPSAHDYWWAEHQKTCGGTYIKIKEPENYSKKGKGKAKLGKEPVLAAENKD
As to the kind of experiment: ITC; with equimolar monoUb; N=0.36 ± 0.02; ITC: 50 mM HEPES pH 7.4, 50 mM NaCl, 0.5 mM TCEP-HCl, 25 °C, one-site model.

The target of data set [2] is T1, SPRTN core (E112Q). Nature of the data set: ITC; no ubiquitin; N=0.36 ± 0.05; ITC: 50 mM HEPES pH 7.4, 50 mM NaCl, 0.5 mM TCEP-HCl, 25 °C, one-site model.
Data set [3] deals with T1, SPRTN core (E112Q). As to the kind of experiment: ITC; with equimolar M1-Ub4 (linear tetra-ubiquitin; ternary complex); N=0.29 ± 0.01; ITC: 50 mM HEPES pH 7.4, 50 mM NaCl, 0.5 mM TCEP-HCl, 25 °C, one-site model. A general note: In ITC the heat of successive injections is recorded.

Regarding ACGCCTGAAGAGTCTGGTGA (ssDNA) [ssDNA (20 nt), Turner-20bp-F], the values for the Kd with SPRTN core (E112Q) [1], with SPRTN core (E112Q) [2] and in the data set with SPRTN core (E112Q) [3] were 5.15 ± 1.36 µM, 4.33 ± 0.98 µM and 0.44 ± 0.03 µM, respectively.
